Values joined by “and” are separate entries in the source; they are usually repeats but may differ in a detail not shown here. Equal entries are not always repeated. Each block holds one binder with its values, some of them ahead of it.
What was measured:
[1] = target: FGFR2 on SNU-16 cells (human, UniProt P21802 22-821); test: cell-based or functional assay
[2] = target: T1, Recombinant Human-FGFR2-His protein (human, UniProt P21802-3 22-378, limits assumed); test: ELISA, Human-FGFR2-His coated, anti-human Fc-HRP detection
T1 construct: Bought protein; not shown: His tag
T1 sequence (P21802 other isoform, or with tags, fused parts or gaps limits assumed): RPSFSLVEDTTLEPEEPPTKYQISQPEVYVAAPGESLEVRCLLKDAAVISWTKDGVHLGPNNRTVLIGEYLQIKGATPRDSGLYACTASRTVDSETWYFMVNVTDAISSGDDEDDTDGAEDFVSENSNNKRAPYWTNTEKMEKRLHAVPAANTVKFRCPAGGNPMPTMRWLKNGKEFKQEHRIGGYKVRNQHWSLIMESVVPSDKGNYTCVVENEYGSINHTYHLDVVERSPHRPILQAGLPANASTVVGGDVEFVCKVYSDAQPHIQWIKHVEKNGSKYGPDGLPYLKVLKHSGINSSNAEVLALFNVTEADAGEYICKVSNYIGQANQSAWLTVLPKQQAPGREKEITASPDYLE

[3] = target: T2, PD-1 expressed on the surface of Jurkat-PD-1-NFAT-luc cells (UniProt Q15116 25-288, limits assumed); test: flow cytometry on Jurkat-PD-1-NFAT-luc cells, anti-human Fab-FITC detection
T2 construct: whole, on cells; also called cell surface PD-1 protein
T2 sequence (Q15116 25-288 limits assumed): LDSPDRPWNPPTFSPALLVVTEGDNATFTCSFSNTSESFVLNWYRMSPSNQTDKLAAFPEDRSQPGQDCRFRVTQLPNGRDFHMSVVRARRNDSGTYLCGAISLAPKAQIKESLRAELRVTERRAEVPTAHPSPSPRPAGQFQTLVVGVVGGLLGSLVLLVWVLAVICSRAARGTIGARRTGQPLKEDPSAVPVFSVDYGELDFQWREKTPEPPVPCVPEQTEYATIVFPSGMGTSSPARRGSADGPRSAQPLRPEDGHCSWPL

[4] = target: T2, PD-1 expressed on the surface of …; test: cell-based or functional assay
[5] = target: T3, Recombinant Human-PD-1-His protein (human, UniProt Q15116 25-167, limits assumed); test: ELISA, Human-PD-1-His coated, anti-human Fc-HRP detection
T3 construct: not shown: His tag
T3 sequence (Q15116 25-167 limits assumed): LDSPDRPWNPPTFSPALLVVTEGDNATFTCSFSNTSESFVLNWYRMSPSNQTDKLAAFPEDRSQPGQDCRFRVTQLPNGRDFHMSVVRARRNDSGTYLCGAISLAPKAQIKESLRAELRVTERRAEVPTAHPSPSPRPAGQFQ

FGFR2 on SNU-16 cells, sequence (P21802 22-821): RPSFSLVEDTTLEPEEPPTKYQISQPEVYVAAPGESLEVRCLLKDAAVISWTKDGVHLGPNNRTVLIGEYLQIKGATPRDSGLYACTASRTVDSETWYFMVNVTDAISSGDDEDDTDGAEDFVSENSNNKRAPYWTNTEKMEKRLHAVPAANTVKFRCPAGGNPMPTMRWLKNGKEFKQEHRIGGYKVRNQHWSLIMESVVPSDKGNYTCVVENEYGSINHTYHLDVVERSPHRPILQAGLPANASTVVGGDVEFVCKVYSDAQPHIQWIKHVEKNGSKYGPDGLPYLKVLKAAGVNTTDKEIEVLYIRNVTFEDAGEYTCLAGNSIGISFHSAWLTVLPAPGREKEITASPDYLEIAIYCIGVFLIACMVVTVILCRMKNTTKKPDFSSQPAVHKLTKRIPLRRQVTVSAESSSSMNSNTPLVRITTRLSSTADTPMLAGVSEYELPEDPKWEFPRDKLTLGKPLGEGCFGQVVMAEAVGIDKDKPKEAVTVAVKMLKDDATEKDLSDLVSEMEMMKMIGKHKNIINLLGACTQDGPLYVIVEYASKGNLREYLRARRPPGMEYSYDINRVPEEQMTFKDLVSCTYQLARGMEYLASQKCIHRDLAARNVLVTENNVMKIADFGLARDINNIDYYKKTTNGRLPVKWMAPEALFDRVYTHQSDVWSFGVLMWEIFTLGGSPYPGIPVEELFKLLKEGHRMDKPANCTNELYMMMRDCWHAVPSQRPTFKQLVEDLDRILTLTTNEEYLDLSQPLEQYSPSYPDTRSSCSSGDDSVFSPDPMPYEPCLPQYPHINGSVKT

EC50 [2]: 0.0392 nM and 0.0297 nM
B1: anti-FGFR2 monoclonal antibody (antibody, human IgG1, kappa, V domains shown)
VH: QVQLVQSGAEVKKPGSSVKVSCKASGYTFTSYWMHWVRQAPGQGLEWMGAIYPGNSDTDYSGKFKGRVTITADESTSTAYMELSSLRSEDTAVYYCSKFDYWGQGTLVTVSS
VL: EIVLTQSPATLSLSPGERATLSCRASSSVNYMYWYQQKPGQAPRPWIYLTSNRATGVPARFSGSGSGTDYTLTISSLEPEDFAVYYCQQWSSNPYTFGQGTKLEIKR
notes: also called positive control anti-FGFR2 monoclonal antibody; anti-FGFR2 mAb
EC50 of ADCC (NK cell killing of SNU-16 cells, LDH release) [1]: 3.03 nM

EC50 [3]: 0.482 nM
IC50 for the blockade of PD-1 and PD-L1 binding (NFAT-luc reporter luminescence) [4]: 0.481 nM
EC50 [2]: 0.0568 nM
EC50 [5]: 0.122 nM and 0.16 nM
B2: anti-FGFR2/PD-1 bispecific antibody a (bispecific antibody, human IgG1, kappa)
heavy: not shown
light: EIVLTQSPATLSLSPGERATLSCRASSSVNYMYWYQQKPGQAPRPWIYLTSNRATGVPARFSGSGSGTDYTLTISSLEPEDFAVYYCQQWSSNPYTFGQGTKLEIKRTVAAPSVFIFPPSDEQLKSGTASVVCLLNNFYPREAKVQWKVDNALQSGNSQESVTEQDSKDSTYSLSSTLTLSKADYEKHKVYACEVTHQGLSSPVTKSFNRGEC
notes: Anti-FGFR2 IgG with an anti-PD-1 scFv (VL-L1-VH) on the C-terminus of each heavy chain; wild-type Fc; also called anti-FGFR2/PD-1 bispecific antibody molecule a

EC50 [2]: 0.0615 nM
EC50 [5]: 0.356 nM
B3: anti-FGFR2/PD-1 bispecific antibody d (bispecific antibody, human IgG1, kappa)
heavy: not shown
light: B2 light
notes: Anti-FGFR2 IgG with an anti-PD-1 scFv in VH-L1-VL order on the C-terminus of each heavy chain; also called anti-FGFR2/PD-1 bispecific antibody molecule d

EC50 [3]: 0.634 nM
IC50 for the blockade of PD-1 and PD-L1 binding (NFAT-luc reporter luminescence) [4]: 2.35 nM
EC50 [2]: 0.0512 nM
EC50 [5]: 0.141 nM
B4: anti-FGFR2/PD-1 bispecific antibody b (bispecific antibody, human IgG1, kappa)
heavy: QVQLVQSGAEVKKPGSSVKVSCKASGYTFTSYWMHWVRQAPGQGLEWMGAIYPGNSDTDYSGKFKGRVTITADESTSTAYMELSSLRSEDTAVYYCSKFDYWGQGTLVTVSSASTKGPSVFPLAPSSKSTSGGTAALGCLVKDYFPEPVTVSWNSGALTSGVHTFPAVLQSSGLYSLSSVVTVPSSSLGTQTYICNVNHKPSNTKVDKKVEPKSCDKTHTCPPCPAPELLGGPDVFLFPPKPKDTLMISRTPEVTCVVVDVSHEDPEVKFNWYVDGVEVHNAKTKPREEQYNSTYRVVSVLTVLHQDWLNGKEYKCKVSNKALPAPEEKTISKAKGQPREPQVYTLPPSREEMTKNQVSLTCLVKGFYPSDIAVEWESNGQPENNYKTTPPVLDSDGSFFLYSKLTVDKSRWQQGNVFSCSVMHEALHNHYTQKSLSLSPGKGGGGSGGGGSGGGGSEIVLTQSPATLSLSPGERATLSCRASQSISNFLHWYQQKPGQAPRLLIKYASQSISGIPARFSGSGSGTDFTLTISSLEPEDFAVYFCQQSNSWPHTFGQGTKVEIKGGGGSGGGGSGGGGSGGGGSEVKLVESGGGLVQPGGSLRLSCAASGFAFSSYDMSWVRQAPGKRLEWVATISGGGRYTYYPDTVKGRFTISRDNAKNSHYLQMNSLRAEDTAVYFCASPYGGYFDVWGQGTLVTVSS
light: B2 light
notes: also called anti-FGFR2/PD-1 bispecific antibody molecule b
EC50 of ADCC (NK cell killing of SNU-16 cells, LDH release) [1]: 4.62 nM

Reference: EP4722254A1 (Sunshine Guojian Pharmaceutical (Shanghai) Co., Ltd., dated 2026)
